Measured values reported in PMC8287531 (2021).
Where no end group is shown, it is not given here.

Biological target: T1, talin R7R8 rod domains (UniProt Q9Y490 1359-1659)
T1 chain: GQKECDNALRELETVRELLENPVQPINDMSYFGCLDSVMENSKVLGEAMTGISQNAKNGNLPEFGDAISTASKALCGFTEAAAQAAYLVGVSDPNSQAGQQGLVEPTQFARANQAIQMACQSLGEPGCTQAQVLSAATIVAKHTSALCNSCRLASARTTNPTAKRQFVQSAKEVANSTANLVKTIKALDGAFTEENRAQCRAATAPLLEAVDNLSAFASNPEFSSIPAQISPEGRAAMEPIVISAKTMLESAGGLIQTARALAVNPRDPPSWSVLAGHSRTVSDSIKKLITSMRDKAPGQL
Assay: FP

Which Kd does the source give for SEDIDQMFSTLLGEMDLLTQSLGVDTC (also: fluorescein-labeled, position not given here) [RIAM(4-30) peptide, fluorescein-labeled] here?
The Kd was 3.6 µM.
